Assay results taken from publication PMC12344693, “Human Milk Oligosaccharides Multivalently Presented on Defined Synthetic Neo-Glycoproteins Are Nanomolar Ligands of Tandem-Repeat Galectins” (Biomacromolecules, 2025).

target: Asialofetuin (UniProt P12763); assay: ELISA; direct ELISA: ASF immobilised on microtiter plates, serial dilution of the galectin in EPBS (PBS with 2 mM EDTA, 50 µL/well); otherwise as the competitive ELISA (anti-His-tag-HRP detection)
Sequence (P12763 19-359): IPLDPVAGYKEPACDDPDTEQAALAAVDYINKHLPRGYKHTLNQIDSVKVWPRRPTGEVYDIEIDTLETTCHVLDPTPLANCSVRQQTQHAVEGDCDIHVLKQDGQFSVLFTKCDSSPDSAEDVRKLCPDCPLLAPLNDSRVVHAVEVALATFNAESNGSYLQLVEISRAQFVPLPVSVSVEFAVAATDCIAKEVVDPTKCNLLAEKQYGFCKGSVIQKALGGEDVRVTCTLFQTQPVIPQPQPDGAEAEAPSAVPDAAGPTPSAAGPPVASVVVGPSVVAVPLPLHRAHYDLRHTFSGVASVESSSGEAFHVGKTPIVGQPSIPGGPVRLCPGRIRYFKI

Substance	Kd [nM]
Gal-8-AVI-link (natural protein)	320
Gal-9-AVI-link (natural protein)	180

target: His-tagged galectin-1 (C2S) (human); assay: ELISA; competitive ELISA: ASF (0.1 µM in PBS) immobilised, serial dilutions of the neo-glycoprotein in EPBS incubated with […] Gal-1 or Gal-3 for 2 h; galectin left on ASF detected with anti-His-tag-HRP
Sequence (P09382 other isoform, or with tags, fused parts or gaps): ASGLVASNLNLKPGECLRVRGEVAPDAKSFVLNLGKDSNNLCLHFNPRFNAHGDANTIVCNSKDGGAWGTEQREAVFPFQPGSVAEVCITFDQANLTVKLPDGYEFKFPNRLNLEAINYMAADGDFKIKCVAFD

Substance	IC50 [nM]
Neo-glycoprotein NGP8 (LDN-LN2-HSA) (from UniProt P02768 25-609)	> 20000
Neo-glycoprotein NGP4 (LN1-LN2-HSA) (from UniProt P02768 25-609)	> 20000
Neo-glycoprotein NGP1 (Lac-HSA) (from UniProt P02768 25-609)	> 20000

target: full-length recombinant human galectin-8, N-terminal His-tagged (human) (UniProt O00214); assay: ELISA; competitive: ASF (0.1 μM in PBS) immobilised on microtiter plates; serial dilutions of inhibitor in EPBS (PBS with 2 mM EDTA) incubated 2 h with a constant galectin concentration ([…] Gal-1, Gal-3, Gal-4; 0.5 μM Gal-8, Gal-9); residual galectin on ASF detected with anti-His-tag-HRP
Sequence (O00214 whole entry): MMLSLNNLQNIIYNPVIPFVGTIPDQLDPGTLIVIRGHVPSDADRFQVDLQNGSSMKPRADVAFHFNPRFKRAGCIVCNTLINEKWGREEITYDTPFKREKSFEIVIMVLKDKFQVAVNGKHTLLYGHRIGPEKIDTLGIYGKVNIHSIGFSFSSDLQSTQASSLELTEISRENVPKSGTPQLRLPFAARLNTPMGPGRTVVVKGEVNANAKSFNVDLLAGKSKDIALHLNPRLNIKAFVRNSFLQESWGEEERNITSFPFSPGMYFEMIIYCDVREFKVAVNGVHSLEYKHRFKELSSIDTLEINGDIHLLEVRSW

Substance	IC50 [nM]
neo-glycoprotein NGP7 (LDN-Lac-HSA) (from UniProt P02768 25-609)	400
neo-glycoprotein NGP2 (LN2-HSA) (from UniProt P02768 25-609)	> 20000
neo-glycoprotein NGP4 (LN1-LN2-HSA) (from UniProt P02768 25-609)	600
neo-glycoprotein NGP5 (LN2-Lac-HSA) (from UniProt P02768 25-609)	200
neo-glycoprotein NGP1 (Lac-HSA) (from UniProt P02768 25-609)	> 20000
